Source: article PMC12357092, “Two stages of substrate discrimination dictate selectivity in the Escherichia coli MetNI-Q ABC transporter system” (The Journal of Biological Chemistry, 2025)

Columns and labels:
[1] = target: T1, E. coli MetNI transporter, E166Q/N295A double mutant, detergent-solubilized (E. coli, UniProt P30750 1-343; P31547 1-217, E166Q | N295A); assay: FP; unfolded-refolded N229A MetQ, ATP/EDTA
T1 sequence 1: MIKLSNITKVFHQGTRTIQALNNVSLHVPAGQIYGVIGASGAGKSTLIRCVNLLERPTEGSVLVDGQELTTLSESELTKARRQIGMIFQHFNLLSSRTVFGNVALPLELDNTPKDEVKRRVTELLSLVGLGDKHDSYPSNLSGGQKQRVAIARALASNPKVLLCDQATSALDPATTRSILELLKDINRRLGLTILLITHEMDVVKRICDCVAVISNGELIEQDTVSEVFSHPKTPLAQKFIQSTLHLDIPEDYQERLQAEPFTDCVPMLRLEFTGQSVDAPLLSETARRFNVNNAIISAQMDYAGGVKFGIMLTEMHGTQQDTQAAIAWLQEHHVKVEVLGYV
T1 sequence 2: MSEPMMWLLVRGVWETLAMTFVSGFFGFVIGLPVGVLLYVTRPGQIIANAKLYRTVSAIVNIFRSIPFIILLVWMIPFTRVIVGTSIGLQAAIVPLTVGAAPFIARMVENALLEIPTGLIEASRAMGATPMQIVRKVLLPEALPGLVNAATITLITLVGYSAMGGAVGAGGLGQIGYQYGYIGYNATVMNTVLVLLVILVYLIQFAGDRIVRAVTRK

[2] = target: T2, E. coli MetNI transporter, E166Q/N295A double mutant, detergent-solubilized (E. coli, UniProt P30750 1-343; P31547 1-217, E166Q | N295A); assay: fluorescence polarisation; 20 nM fluorescein-labelled MetQ held constant, detergent-solubilized E166Q/N295A MetNI 0-10 uM; ATP-bound state mimicked with 5 mM ATP and 10 mM EDTA; no methionine added (unfolded-refolded WT MetQ or native N229A); 57.5 mM Tris pH 7.5, 10 mM TAPS pH 8.5, 150 mM NaCl, 1.5 mM bME, 0.05% DDM; single-site binding model; settings: both partners purified
T2 construct: MetI, the transmembrane (permease) subunit of the E. coli methionine ABC importer MetNI; also called E166Q/N295A MetNI; source: purified, detergent-solubilized (DDM); copies: 2 + 2
T2 sequence (looked up) 1: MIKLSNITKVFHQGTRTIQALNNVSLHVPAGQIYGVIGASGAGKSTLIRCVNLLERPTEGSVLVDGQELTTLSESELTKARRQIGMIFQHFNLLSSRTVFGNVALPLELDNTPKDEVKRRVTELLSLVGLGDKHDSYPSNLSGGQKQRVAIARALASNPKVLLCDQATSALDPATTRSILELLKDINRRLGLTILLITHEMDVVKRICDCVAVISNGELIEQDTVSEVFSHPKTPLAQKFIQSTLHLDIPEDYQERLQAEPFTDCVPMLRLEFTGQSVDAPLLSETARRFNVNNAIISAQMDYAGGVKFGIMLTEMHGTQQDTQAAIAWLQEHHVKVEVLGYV
T2 sequence (looked up) 2: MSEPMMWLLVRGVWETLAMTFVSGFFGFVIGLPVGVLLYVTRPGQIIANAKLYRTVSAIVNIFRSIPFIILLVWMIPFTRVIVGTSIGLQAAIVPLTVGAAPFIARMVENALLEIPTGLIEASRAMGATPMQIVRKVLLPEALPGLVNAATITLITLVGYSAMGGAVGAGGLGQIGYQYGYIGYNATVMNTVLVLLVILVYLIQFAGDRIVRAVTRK

[3] = target: T3, E. coli MetNI transporter, N295A mutant (E. coli, UniProt P30750 1-343; P31547 1-217, N295A); assay: cell-based or functional assay
T3 sequence (looked up) 1: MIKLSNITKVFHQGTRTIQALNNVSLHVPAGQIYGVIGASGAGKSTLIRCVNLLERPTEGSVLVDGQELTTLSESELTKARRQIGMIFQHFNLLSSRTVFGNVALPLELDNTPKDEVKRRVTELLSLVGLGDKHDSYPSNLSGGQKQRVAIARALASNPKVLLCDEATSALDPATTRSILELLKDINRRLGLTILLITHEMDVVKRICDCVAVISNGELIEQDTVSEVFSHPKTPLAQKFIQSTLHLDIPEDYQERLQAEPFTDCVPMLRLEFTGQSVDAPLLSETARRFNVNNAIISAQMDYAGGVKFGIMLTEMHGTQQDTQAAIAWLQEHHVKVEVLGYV
T3 sequence (looked up) 2: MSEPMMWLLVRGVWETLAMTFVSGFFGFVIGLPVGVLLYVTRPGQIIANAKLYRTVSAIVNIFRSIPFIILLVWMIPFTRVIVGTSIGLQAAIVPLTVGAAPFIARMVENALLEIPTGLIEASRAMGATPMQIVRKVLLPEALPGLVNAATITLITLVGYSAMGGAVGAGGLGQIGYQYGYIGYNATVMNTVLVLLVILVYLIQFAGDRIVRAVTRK

[4] = target: T2, E. coli MetNI transporter, E166Q/N295A …; assay: fluorescence polarisation; as a1 (5 mM ATP and 10 mM EDTA), unfolded-refolded WT MetQ with exogenous 100 uM D-Met; settings: both partners purified
[5] = target: T2, E. coli MetNI transporter, E166Q/N295A …; assay: fluorescence polarisation; control: native WT MetQ (co-purifies with L-Met, not unfolded-refolded) with detergent-solubilized E166Q/N295A MetNI; settings: both partners purified
[6] = target: T2, E. coli MetNI transporter, E166Q/N295A …; assay: fluorescence polarisation; as a1 (5 mM ATP and 10 mM EDTA), unfolded-refolded WT MetQ with exogenous 100 uM L-Met; settings: both partners purified
[7] = substrate: Nc1ncnc2c1ncn2[C@@H]1O[C@H](COP(=O)(O)OP(=O)(O)OP(=O)(O)O)[C@@H](O)[C@H]1O; assay: purified protein; settings: 500 nM MetNI in DDM, equimolar MgCl2 and ATP, 37 °C, no MetQ, no Met

B1: E. coli MetQ N229A, secreted (non-lipidated), C-terminal 6x-histidine tag (natural protein, UniProt P28635 23-271, looked up)
chain: CGQDEKDPNHIKVGVIVGAEQQVAEVAQKVAKDKYGLDVELVTFNDYVLPNEALSKGDIDANAFQHKPYLDQQLKDRGYKLVAVGNTFVYPIAGYSKKIKSLDELQDGSQVAVPNDPTNLGRSLLLLQKVGLIKLKDGVGLLPTVLDVVENPKNLKIVELEAPQLPRSLDDAQIALAVINTTYASQIGLTPAKDGIFVEDKESPYVALIVTREDNKDAENVKKFVQAYQSDEVYEAANKVFNGGAVKGW
modifications: fluorescein 5-maleimide on the single native cysteine at position 23 (anisotropy experiments)
notes: secreted non-lipidated form isolated from the periplasmic extract; The protein is unlabelled in the ATPase assays; also called N229A MetQ; native N229A; source: E. coli BL21 (DE3) Gold, periplasmic extract, purified (HisTrap, Superdex 200); not shown: His6, C-terminal, kept
[1]
  Kd: 113 nM
[2]
  Kd: 300 nM
[3]
  kcat of MetQ-stimulated ATPase activity of detergent-solubilized N295A MetNI, 5 mM MgATP, native N229A MetQ 0-50 μM: 4.45 s⁻¹

B2: E. coli MetQ substrate-binding protein, wild type, secreted (non-lipidated), C-terminal 6x-histidine tag (natural protein, UniProt P28635 23-271, looked up)
chain: CGQDEKDPNHIKVGVIVGAEQQVAEVAQKVAKDKYGLDVELVTFNDYVLPNEALSKGDIDANAFQHKPYLDQQLKDRGYKLVAVGNTFVYPIAGYSKKIKSLDELQDGSQVAVPNDPTNLGRSLLLLQKVGLIKLKDGVGLLPTVLDVVENPKNLKIVELEAPQLPRSLDDAQIALAVINTTYASQIGLTPAKDGIFVEDKESPYVNLIVTREDNKDAENVKKFVQAYQSDEVYEAANKVFNGGAVKGW
modifications: fluorescein 5-maleimide on the single native cysteine at position 23 (anisotropy experiments)
notes: secreted non-lipidated form isolated from the periplasmic extract; Cys23 is present; WT(apo), WT(LM) and WT(DM) are the same protein without methionine, with 100 uM L-Met or with 100 uM D-Met; native WT co-purifies with L-Met; The protein is unlabelled in the ATPase assays; also called WT MetQ; WT(apo); source: E. coli BL21 (DE3) Gold, periplasmic extract, purified (HisTrap, Superdex 200); not …
[4]
  Kd: 800 nM
[5]
  Kd: 8000 ± 2000 nM
[6]
  Kd: 5000 nM
[2]
  Kd: 400 nM
[3]
  kcat of MetQ-stimulated ATPase activity of detergent-solubilized N295A MetNI, 5 mM MgATP, WT(DM) MetQ 0-50 μM with 100 μM D-Met: 1.83 s⁻¹
  kcat of MetQ-stimulated ATPase activity of detergent-solubilized N295A MetNI, 5 mM MgATP, WT(LM) MetQ 0-50 μM with 100 μM L-Met: 1 s⁻¹
  kcat of MetQ-stimulated ATPase activity of detergent-solubilized N295A MetNI, 5 mM MgATP, WT(apo) MetQ 0-50 μM: 4 s⁻¹

B3: MetNI (Escherichia coli K-12) (protein)
chain: MIKLSNITKVFHQGTRTIQALNNVSLHVPAGQIYGVIGASGAGKSTLIRCVNLLERPTEGSVLVDGQELTTLSESELTKARRQIGMIFQHFNLLSSRTVFGNVALPLELDNTPKDEVKRRVTELLSLVGLGDKHDSYPSNLSGGQKQRVAIARALASNPKVLLCDEATSALDPATTRSILELLKDINRRLGLTILLITHEMDVVKRICDCVAVISNGELIEQDTVSEVFSHPKTPLAQKFIQSTLHLDIPEDYQERLQAEPFTDCVPMLRLEFTGQSVDAPLLSETARRFNVNNNIISAQMDYAGGVKFGIMLTEMHGTQQDTQAAIAWLQEHHVKVEVLGYV
[7]
  Km: 800 ± 100 µM
  kcat: 0.4 ± 0.067 s⁻¹

B4: MetNI (Escherichia coli K-12; N295A) (protein)
chain: MIKLSNITKVFHQGTRTIQALNNVSLHVPAGQIYGVIGASGAGKSTLIRCVNLLERPTEGSVLVDGQELTTLSESELTKARRQIGMIFQHFNLLSSRTVFGNVALPLELDNTPKDEVKRRVTELLSLVGLGDKHDSYPSNLSGGQKQRVAIARALASNPKVLLCDEATSALDPATTRSILELLKDINRRLGLTILLITHEMDVVKRICDCVAVISNGELIEQDTVSEVFSHPKTPLAQKFIQSTLHLDIPEDYQERLQAEPFTDCVPMLRLEFTGQSVDAPLLSETARRFNVNNAIISAQMDYAGGVKFGIMLTEMHGTQQDTQAAIAWLQEHHVKVEVLGYV
[7]
  Km: 812 ± 4 µM
  kcat: 0.4 ± 0.067 s⁻¹
